Among the data in PMC4786781 are Kd values, retold here.

Data set [1] has as its target T1, Spo0J R82A R82A (Bacillus subtilis) (UniProt P26497).
T1 sequence: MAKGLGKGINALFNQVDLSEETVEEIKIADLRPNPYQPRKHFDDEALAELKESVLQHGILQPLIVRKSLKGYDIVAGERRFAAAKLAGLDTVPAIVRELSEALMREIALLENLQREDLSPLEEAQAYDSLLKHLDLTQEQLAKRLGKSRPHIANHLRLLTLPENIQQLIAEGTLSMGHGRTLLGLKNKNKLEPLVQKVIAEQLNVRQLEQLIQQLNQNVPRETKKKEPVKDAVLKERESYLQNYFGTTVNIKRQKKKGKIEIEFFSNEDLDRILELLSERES
Put plainly: single-molecule PIFE, steady state, Hill fit (n=0.8±0.2). Conditions: 150 mM NaCl, apparent Kd, Cy3-dUTP randomly incorporated, about 1 per kb, PIFE: 20 mM Tris pH 7.5, 100 ug/ml BSA, 100 mM NaCl (150 mM for Spo0J R82A Kd), flow 100 ul/min, BLItz: 20 mM Tris pH 7.5, 150 mM NaCl, 0.02% ….

For data set [2], the system named is HBsu (Bacillus subtilis). The data set can be described thus: single-molecule PIFE and DNA length, two-state model. As to conditions: Cy3-dUTP randomly incorporated, about 1 per kb, PIFE: 20 mM Tris pH 7.5, 100 ug/ml BSA, 100 mM NaCl (150 mM for Spo0J R82A Kd), flow 100 ul/min, BLItz: 20 mM Tris pH 7.5, 150 mM NaCl, 0.02% ….
The target in data set [3] is T1, Spo0J R82A R82A (Bacillus subtilis). The data set can be described thus: single-molecule PIFE kinetics, koff/kon. As to conditions: 150 mM NaCl, kon 2.1±0.2e6 M-1 s-1, koff 0.16±0.01 s-1, Cy3-dUTP randomly incorporated, about 1 per kb, PIFE: 20 mM Tris pH 7.5, 100 ug/ml BSA, 100 mM NaCl (150 mM for Spo0J R82A Kd), flow 100 ul/min, BLItz: 20 mM Tris pH 7.5, 150 mM NaCl, 0.02% ….

Turning to 20-kb Cy3-labelled DNA, the Kd is 60.5 nM in data set [1]; 13 nM in data set [2] (K1, high-affinity bending mode, first dimer); 390 nM in data set [2] (K2, low-affinity filament mode, second dimer); 76.2 nM in data set [3].
